Measured values taken from the nanobody polyreactivity screen of Harvey et al. (2022).

Assay: yeast display, Sf9 membrane polyspecificity reagent, FACS + sequencing; frameworks hold sequencing errors
Method in brief: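 Using colony PCR, genes from sorted yeast display clones were amplified, then sequenced on MiSeq at 2 × 250 and filtered by CDR length. The clones had been stained with 10% biotinylated, detergent-solubilized Sf9 membrane reagent for 1 hour at 4 °C and sorted by FACS into low and high (top ~1%) gates on anti-HA and streptavidin fluorescence. Polyreactivity labels come from the gate of origin.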
For “QVQLVESGGGLVQAGGSLRLSCAASGTFTRNVMGWYRQAPGKERELVAAIDNGSSTNYADSVKGRFTISRDNAKNTVYLQINSQKPEDTAVYYCANERPRSAGSAASIEQQMDYWGQGTQVTVSS”, the “polyreactivity (PSR sort gate)” value was “low polyreactivity”. For “QVQLVESGGGLVQAGGSLRLSCAASGTFTVNTMGWYRQAPGKERELVAAISTGDTTTYADSVKGRFTISRDNAKNTVYLQMNSLKPEDTAVYYCNVDIGVYAYESDYWGQGTQVTVSS”, the “polyreactivity (PSR sort gate)” value was “low polyreactivity”. In the case of “QVQLVESGGGLVQAGGSLRLSCAASGTFYGYAMGGYRQSPGKERELVAAITWSGGSTYYADSVKGRFTISRDNAKNTVYLQMNSLKPEDTAVYYCAASLYSGYDSWGQGTQVTVSS”, the “polyreactivity (PSR sort gate)” value is reported as “low polyreactivity”. For “QVQLVESGGGLVQAGGSLRLSCAASGTFYYYAMGWYRQAPGKERELVAAISNGDSTTYADSVKGRFTISRDNAKNTVYLQMTSLKPEDTAVYYCAAYRYTPRTSRGYYYWGQGTQVTVSS”, the “polyreactivity (PSR sort gate)” value was “low polyreactivity”. In the case of “QVQLVESGGGLVQAGGSLRLSCAASGTIFDYNAMGWYRQAPGKERELVAAISWRGGTTYYADSVKGRFTISRDNAKNTVYLQMNSLKPEDTAVYYCAAGRRGVYHGGYWGQGTQVTVSS”, the “polyreactivity (PSR sort gate)” value is reported as “high polyreactivity”. For “QVQLVESGGGLVQAGGSLRLSCAASGTIFFGNTMGWYRQAPGKERELVAVITSSGGRTFYADSVKGRFTISRDNAKNTVYLHMNSLKPEDTAVYYCAAGHGFYYFTPTHDSWGQGTQVTVSS”, the “polyreactivity (PSR sort gate)” value was “high polyreactivity”. With “QVQLVESGGGLVQAGGSLRLSCAASGTIFGGYGRGWYRQAPGKERELVAAITSGSSTYYADSVKGRFTISRDNAKNTVYLQMNSLKPEDTAVYYCAARPFPHSAYEGDYWGRGTQVTVSS” the “polyreactivity (PSR sort gate)” value was “low polyreactivity”. For “QVQLVESGGGLVQAGGSLRLSCAASGTIFGKYAMGWYRQAPGKERELDAAISRAGGRTYYADSVKGRFTISRDNAKNTVYLQMNSLIPEDTAVYYCNAGNLHSGGQRWNLYYWGQCTQVTVSS”, the “polyreactivity (PSR sort gate)” value was “high polyreactivity”. In the case of “QVQLVESGGGLVQAGGSLRLSCAASGTIFSVNAMGWYRQRLGKKGSWWPLFLTLLPSTYYADSVKARFTISRDNAKNTVYLQMNSLKPEDTAVYYCNAVYSVDFPTPTSDGDPDGFDYWGQGTQVTVSS”, the “polyreactivity (PSR sort gate)” value is reported as “low polyreactivity”. With “QVQLVESGGGLVQAGGSLRLSCAASGTIFTHNAMGWYRQAAGKEREFVAAISSGGSTNYADSVNGRFTISRDNAKNTVYLQMNSLKPQDTAVYYCAKSIDGWYWRRRRYDYWGHGTQVTVSS” the “polyreactivity (PSR sort gate)” value was “low polyreactivity”. For “QVQLVESGGGLVQAGGSLRLSCAASGTIFYIYAMGWYRQAPGKERELVAAITWRGGRTYYADSVKGRFTISRDNAKNTVYLQMNSLKPEDTAVYYCAALYANYYYRYEYWGQGTQVTVSS”, the “polyreactivity (PSR sort gate)” value was “high polyreactivity”. In the case of “QVQLVESGGGLVQAGGSLRLSCAASGTLRYYAMGWYRQAPGKERELVAAISKSGGRTYYADSVKGRFTISRDNAKNTVYLQMNSLKPEDTAVYYCAARGWTANYEMDHWGQGTQVTVSS”, the “polyreactivity (PSR sort gate)” value is reported as “high polyreactivity”. With “QVQLVESGGGLVQAGGSLRLSCAASGTLYINVMGWYRQAPGKERELVAAISSNGARTYYADSVKGRFTISRDNAKNTVYLQMNSLKPEDTAVYYCNRVASVRARDYDYWGQGTQVTVSS” the “polyreactivity (PSR sort gate)” value was “high polyreactivity”. For “QVQLVESGGGLVQAGGSLRLSCAASGTMGWYRQAPGKERELVAAISSSDRTSYADSVKGRFTISRDNAKNTVYLQMNSLKPEDTAVYYCNASTVFAWRTTTLKLFYTAHDYWGQGTQVTVSS”, the “polyreactivity (PSR sort gate)” value was “low polyreactivity”. In the case of “QVQLVESGGGLVQAGGSLRLSCAASGTTFAWNTMGWYRQAPGKERELVARISRRSVSTYYADSVKGRFTISRDNAKNTVYLQMNSLKPEDTAVYYCAADYFSYQKYDYWGQGTQVTVSS”, the “polyreactivity (PSR sort gate)” value is reported as “low polyreactivity”. With “QVQLVESGGGLVQAGGSLRLSCAASGTTFVIYAKGWYRQAPGKERELVASISGSGGSTFYADSVKGRFTISRDNAKITVYLQMNSLKPEDTAVYYCAAAVGVGRSGGTYDYWGQGTQVTVSS” the “polyreactivity (PSR sort gate)” value was “low polyreactivity”. For “QVQLVESGGGLVQAGGSLRLSCAASGTTISNYAMGWYRQAPGKERELVAGIDWSGGSTYYADSVKGRFTISRDNAKNTVYLHMNSLKPEDTAVYYCAKRVWYHGRKLRGYYWGQGTQVTVSS”, the “polyreactivity (PSR sort gate)” value was “low polyreactivity”. With “QVQLVESGGGLVQAGGSLRLSCAASGTTLYWNAMGWYRQAPGKERELVAAISRSGGSTYYADSVKGRFTISRDNAKNTVYLQMNSLKPEDTAVYYCAARRYVPHTEYYYWGQGTQVTVSS” the “polyreactivity (PSR sort gate)” value was “low polyreactivity”. In the case of “QVQLVESGGGLVQAGGSLRLSCAASGTTSPNAMGWYRQAPGKERELVAAMWSGGTYYADSVKGRFTISRDNAKNTVYLQMNSLKPEDTAVYYCAADGEFRRAWYEGDYWGQGTQVTVSS”, the “polyreactivity (PSR sort gate)” value is reported as “low polyreactivity”. In the case of “QVQLVESGGGLVQAGGSLRLSCAASGVIFSFYAMGWDREAPGKERELVAAISSSGSTNYADSVKGRFTISRDNAKNTVYLQMNSLKPEDTAVYYCNTYFRYFSFYGRPFDYWGQGTQVTVSS”, the “polyreactivity (PSR sort gate)” value is reported as “high polyreactivity”. In the case of “QVQLVESGGGLVQAGGSLRLSCAASGVTFRLDAMGCYRQAPGKDRELVAAISRSGTSTYYADSVKGRFTISRDNPKNTVYLHMNTRKPDDTAVYYCNTARYRYAWYTRYVSWGQGTQVTVSS”, the “polyreactivity (PSR sort gate)” value is reported as “high polyreactivity”. For “QVQLVESGGGLVQAGGSLRLSCAASGYAMGWYRQAPGKERELVAAISWSGDITYADSVKGRFTISRDNAKNTVYLQMNSLKPEDTAVYYCNADRYTGRDGEQSLDYWGQGTQVTVSS”, the “polyreactivity (PSR sort gate)” value was “low polyreactivity”. With “QVQLVESGGGLVQAGGSLRLSCAASGYDMGWYRQAPGKERELVAAISRGGSTSYADSVKGRFTISRENAKNTVYLQMNSLKPEDTAVYYCAARYGSYRVGYDYWGQGTQVTVSS” the “polyreactivity (PSR sort gate)” value was “low polyreactivity”. For “QVQLVESGGGLVQAGGSLRLSCAASGYIFAENAMGWYRQAPGKERELVATITYIGGSTHYADSVKGRFTISRDNAKNTVYLQMNSLKPEDTAVYYCNADNSTYYRSDFGYWGQGTQVTVSS”, the “polyreactivity (PSR sort gate)” value was “low polyreactivity”. For “QVQLVESGGGLVQAGGSLRLSCAASGYIFAVYAMGWYIQAPGKEREFVAVITWRGGSTYYADSVKGRFTISRDNAKNTVYLHMNSLKPEDTAVYYCAADVYAQYDYWGQGTQVTVSS”, the “polyreactivity (PSR sort gate)” value was “high polyreactivity”. For “QVQLVESGGGLVQAGGSLRLSCAASGYIFDFYDMGWYRQAPGKERELVAAITSGGSTNYADSVKGRFTISRDNAKNTVYLQMNSLKPEDTAVYYCAASFVGHIYWGARVPYYYNHDYWGQGTQVTVSS”, the “polyreactivity (PSR sort gate)” value was “high polyreactivity”. With “QVQLVESGGGLVQAGGSLRLSCAASGYIFDHYAMGWYRQAPGKEREFVAAISRSAGSTYYADSVKGRFTISRDNAQNTVYLQMNSLKPEDTAVYYCNAVVAVRSWRKYEYWGQGTQVTVSS” the “polyreactivity (PSR sort gate)” value was “high polyreactivity”. In the case of “QVQLVESGGGLVQAGGSLRLSCAASGYIFDIYAMGWYRQAPGKEMQLVAVITRSGGGTYYADSVKGRFTISRDNAKNTVYLQMNSLKPEDTAVYYCAAESFVYGGSDYDYWGQGTQVTVSS”, the “polyreactivity (PSR sort gate)” value is reported as “low polyreactivity”. With “QVQLVESGGGLVQAGGSLRLSCAASGYIFDRNAMGWYRQAPGKERELVAAITKRGGITYYADSVKGRFTISRDNAKNTVYLQMNSLKPEDTAVFYWNALARSSRYDYWGQGTQVTVSS” the “polyreactivity (PSR sort gate)” value was “high polyreactivity”. For “QVQLVESGGGLVQAGGSLRLSCAASGYIFDRNSMGWYRQAPGKERELVAAITKRGGITYYADSVKGRFTISRDNAKNTVYLQMNSLKPEDTAVYYCNALARSSRYDYWGQGTQVTVSS”, the “polyreactivity (PSR sort gate)” value was “high polyreactivity”. With “QVQLVESGGGLVQAGGSLRLSCAASGYIFDRYAMGWYRKAPGKEREMVAPISGRGGSTYYADSVKGRFSISRDNAKNTVFLQMNSLKPEDTAVYYCARDVYVRNGQRARYVSWGQGTQVTVSS” the “polyreactivity (PSR sort gate)” value was “high polyreactivity”. For “QVQLVESGGGLVQAGGSLRLSCAASGYIFDYNAMGWYRQAPGKERELVAAITFRDGSTYADSVKGRFTISRDNAKNTVYLQMNSLKPEDTAVYYCNRRSQVHSHSKHDYWGQGTLVTVSS”, the “polyreactivity (PSR sort gate)” value was “low polyreactivity”.
